# B1: GLTSCR2 (parent)
# chain: FQRRNMIEPRERAKFKRKYKVKLV
# B2: INTS4 (parent)
# chain: TIIEPAGESDNPLRFTSGLVVALD
# Variants of: B1
# Test: protein stability index of a GFP-peptide fusion (GPS, HEK-293T) (PSI 1-6); higher = more stable
# Details: c terminus: a fixed tail appended
# 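Also: lentivirally expressed fusions sorted by FACS into six bins by GFP to DsRed ratio, PSI derived from sequencing read proportions per bin multiplied by bin number.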
row,Variant,protein stability index
1,K14F,2.77
2,K14G,1.39
3,K14H,2.03
4,K14I,2.5
5,K14L,1.82
6,K14M,1.97
7,K14N,2.02
8,K14P,1.68
9,K14Q,1.99
10,K14R,2.02
11,K14S,2.3
12,K14T,2.33
13,K14V,2.17
14,K14W,2.85
15,K14Y,2.39
16,F15A,2.65
17,F15C,2.67
18,F15D,2.32
19,F15E,2.97
20,F15G,2.96
21,F15H,3.14
22,F15I,2.51
23,F15K,3.05
24,F15L,3.05
25,F15M,2.76
26,F15N,2.69

row,Variant,protein stability index
1,F15P,2.44
2,F15Q,2.96
3,F15R,3.73
4,F15S,3.08
5,F15T,2.66
6,F15V,2.81
7,F15W,2.12
8,F15Y,2.7
9,K16A,1.62
10,K16C,1.87
11,K16D,2.63
12,K16E,1.86
13,K16F,2.4
14,K16G,2.18
15,K16H,2.32
16,K16I,2.64
17,K16L,2.53
18,K16M,2.07
19,K16N,2.48
20,K16P,1.28
21,K16Q,1.87
22,K16R,2.73
23,K16S,2.42
24,K16T,2.29
25,K16V,1.86
26,K16W,2.7

row,Variant,protein stability index
1,K16Y,2.03
2,R17A,2.33
3,R17C,2.18
4,R17D,2.27
5,R17E,2.24
6,R17F,1.74
7,R17G,1.99
8,R17H,1.89
9,R17I,2.32
10,R17K,2.79
11,R17L,2.45
12,R17M,2.94
13,R17N,2.63
14,R17P,2.46
15,R17Q,2.07
16,R17S,2.77
17,R17T,2.56
18,R17V,1.96
19,R17W,2.1
20,R17Y,1.65
21,K18A,2.25
22,K18C,2.05
23,K18D,2.64
24,K18E,2.39
25,K18F,1.61
26,K18G,1.98

row,Variant,protein stability index
1,K18H,2.29
2,K18I,2.45
3,K18L,1.72
4,K18M,2.22
5,K18N,2.4
6,K18P,1.92
7,K18Q,2.51
8,K18R,2.32
9,K18S,2.63
10,K18T,2.24
11,K18V,2.78
12,K18W,2.3
13,K18Y,1.71
14,Y19A,2.46
15,Y19C,2.65
16,Y19D,3.03
17,Y19E,3.15
18,Y19F,2.52
19,Y19G,2.66
20,Y19H,2.93
21,Y19I,2.54
22,Y19K,3.86
23,Y19L,2.75
24,Y19M,2.75
25,Y19N,2.94
26,Y19P,2.74

row,Variant,protein stability index
1,Y19Q,2.87
2,Y19R,3.5
3,Y19S,2.88
4,Y19T,2.37
5,Y19V,2.63
6,Y19W,2.39
7,K20A,3.25
8,K20C,1.93
9,K20D,2.09
10,K20E,3.17
11,K20F,2.52
12,K20G,2.22
13,K20H,2.62
14,K20I,2.07
15,K20L,2.08
16,K20M,2.14
17,K20N,2.19
18,K20P,1.95
19,K20Q,1.93
20,K20R,2.1
21,K20S,2.74
22,K20T,2.34
23,K20V,1.99
24,K20W,2.04
25,K20Y,1.65
26,V21A,2.67

row,Variant,protein stability index
1,V21C,2.97
2,V21D,3.31
3,V21E,2.46
4,V21F,2.55
5,V21G,2.52
6,V21H,2.79
7,V21I,2.35
8,V21K,3.29
9,V21L,2.28
10,V21M,2.34
11,V21N,2.87
12,V21P,2.33
13,V21Q,2.81
14,V21R,2.86
15,V21S,2.5
16,V21T,3.07
17,V21W,2.44
18,V21Y,2.61
19,K22A,1.93
20,K22C,1.51
21,K22D,2.27
22,K22E,2.41
23,K22F,1.73
24,K22G,2.97
25,K22H,1.72
26,K22I,1.27

row,Variant,protein stability index
1,K22L,1.85
2,K22M,2.37
3,K22N,2.6
4,K22P,2.38
5,K22Q,2.38
6,K22R,2.38
7,K22S,1.94
8,K22T,1.89
9,K22V,2.03
10,K22W,1.67
11,K22Y,2.08
12,L23A,2.72
13,L23C,2.73
14,L23D,3.1
15,L23E,2.56
16,L23F,1.71
17,L23G,3.17
18,L23H,2.31
19,L23I,2.52
20,L23K,2.41
21,L23M,1.69
22,L23N,2.75
23,L23P,2.12
24,L23Q,3.43
25,L23R,3.21
26,L23S,2.61

row,Variant,protein stability index
1,L23T,2.25
2,L23V,2.13
3,L23W,2.15
4,L23Y,2.46
5,V24A,2.96
6,V24C,2.25
7,V24D,3.12
8,V24E,2.96
9,V24F,2.54
10,V24G,2.45
11,V24H,2.15
12,V24I,1.91
13,V24K,3.09
14,V24L,1.92
15,V24M,2.25
16,V24N,2.49
17,V24P,2.69
18,V24Q,2.62
19,V24R,2.71
20,V24S,2.62
21,V24T,2.93
22,V24W,1.31
23,V24Y,2.7

# Variants of: B2
# Test: as above
# Details: c terminus: a fixed tail appended
row,Variant,protein stability index
1,L19D,4.96
2,L13T,4.03
3,L13Q,3.5
4,L23I,2.4
5,D10L,1.85
6,T16A,2.74
7,D24N,2.12
8,S17H,2.5
9,I3V,4.2
10,P5R,2.51
11,L19N,4.11
12,S9W,2.19
13,S17C,1.52
14,I2F,3.8
15,P5V,2.54
16,F15S,4.21
17,P12M,2.33
18,N11A,3.13
19,A6P,2.99
20,E4D,3.09
21,T1K,2.68
22,A6S,2.54
23,D10K,2.32
24,S9T,2.9
25,D24Q,2.29
26,A6H,2.75

row,Variant,protein stability index
1,A22R,2.93
2,T1S,3.41
3,I3W,2.88
4,E4W,1.56
5,P12I,2.27
6,F15L,3.21
7,G7E,3.82
8,T1L,1.83
9,P12E,3.13
10,S17M,1.67
11,S17F,2.08
12,L13K,3.64
13,T1N,3.36
14,V21Y,3
15,E4L,2.33
16,I3P,3.42
17,R14Q,3.26
18,L19G,4.16
19,S9D,3.29
20,A6W,1.78
21,D10E,2.62
22,A6I,2.73
23,D10M,2.15
24,I2V,3.15
25,L23S,4.35
26,S17D,3.92

row,Variant,protein stability index
1,A6Q,2.72
2,I3T,3.4
3,L19T,4.16
4,E4A,2.76
5,T16V,2.01
6,G7C,2.56
7,L19A,4.01
8,N11R,3.19
9,T16S,2.88
10,A22L,1.73
11,G7F,2.78
12,F15Q,3.99
13,A6L,2.2
14,P5E,3.31
15,N11Q,3
16,L23T,3.92
17,A6Y,2.19
18,S17I,2.27
19,L13H,3.38
20,L19W,1.98
21,L19Y,2.62
22,A22W,1.87
23,L19V,3.33
24,E4V,1.98
25,V21G,3.65
26,E8K,1.9

row,Variant,protein stability index
1,D24R,1.9
2,S9K,2.87
3,G18V,2.15
4,T16Q,3.35
5,E4Q,2.84
6,D10A,2.96
7,V20L,2.53
8,L23Q,4.56
9,I2D,4.21
10,L23R,3.6
11,F15A,4.29
12,T1F,1.83
13,R14D,3.93
14,E8N,2.23
15,T16D,3.92
16,L19R,4.01
17,V21W,2.16
18,G7S,2.9
19,D10I,2.08
20,P5T,2.77
21,V20A,2.95
22,G18S,2.83
23,F15M,3.44
24,A6C,2.47
25,F15Y,2.87
26,R14N,3.95

row,Variant,protein stability index
1,D24F,4.12
2,T1H,3.23
3,G18D,3.67
4,E4N,2.09
5,P12N,2.88
6,D10T,2.63
7,R14K,2.77
8,T1W,2.23
9,T16E,3.44
10,V21F,2.37
11,D10R,2.23
12,L13N,3.06
13,V21D,4.92
14,S9N,3.25
15,P5W,2.53
16,I2M,3.38
17,E4H,2.55
18,G7D,3.74
19,A22D,3.8
20,L13D,4.41
21,V21P,3.93
22,D10P,2.83
23,T1C,2.38
24,G18A,2.42
25,V20H,3.28

# Source: the supplement of paper PMC10567573
